In paper PMC11574045, “A cofactor-induced repressive type of transcription factor condensation can be induced by synthetic peptides to suppress tumorigenesis” (The EMBO Journal, 2024):

B1: BANP (protein, UniProt Q8N9N5 1-519, looked up)
Protein BANP: MMSEHDLADVVQIAVEDLSPDHPVVLENHVVTDEDEPALKRQRLEINCQDPSIKTICLRLDSIEAKLQALEATCKSLEEKLDLVTNKQHSPIQVPMVAGSPLGATQTCNKVRCVVPQTTVILNNDRQNAIVAKMEDPLSNRAPDSLENVISNAVPGRRQNTIVVKVPGQEDSHHEDGESGSEASDSVSSCGQAGSQSIGSNVTLITLNSEEDYPNGTWLGDENNPEMRVRCAIIPSDMLHISTNCRTAEKMALTLLDYLFHREVQAVSNLSGQGKHGKKQLDPLTIYGIRCHLFYKFGITESDWYRIKQSIDSKCRTAWRRKQRGQSLAVKSFSRRTPNSSSYCPSEPMMSTPPPASELPQPQPQPQALHYALANAQQVQIHQIGEDGQVQVGHLHIAQVPQGEQVQITQDSEGNLQIHHVGQDGQLLEATRIPCLLAPSVFKASSGQVLQGAQLIAVASSDPAAAGVDGSPLQGSDIQVQYVQLAPVSDHTAGAQTAEALQPTLQPEMQLEHGAIQIQ
B2: PRDM16 (protein, UniProt Q9HAZ2 1-1276, looked up)
Histone-lysine …: MRSKARARKLAKSDGDVVNNMYEPNRDLLASHSAEDEAEDSAMSPIPVGPPSPFPTSEDFTPKEGSPYEAPVYIPEDIPIPADFELRESSIPGAGLGVWAKRKMEAGERLGPCVVVPRAAAKETDFGWEQILTDVEVSPQEGCITKISEDLGSEKFCVDANQAGAGSWLKYIRVACSCDDQNLTMCQISEQIYYKVIKDIEPGEELLVHVKEGVYPLGTVPPGLDEEPTFRCDECDELFQSKLDLRRHKKYTCGSVGAALYEGLAEELKPEGLGGGSGQAHECKDCERMFPNKYSLEQHMVIHTEEREYKCDQCPKAFNWKSNLIRHQMSHDSGKRFECENCVKVFTDPSNLQRHIRSQHVGARAHACPDCGKTFATSSGLKQHKHIHSTVKPFICEVCHKSYTQFSNLCRHKRMHADCRTQIKCKDCGQMFSTTSSLNKHRRFCEGKNHYTPGGIFAPGLPLTPSPMMDKAKPSPSLNHASLGFNEYFPSRPHPGSLPFSTAPPTFPALTPGFPGIFPPSLYPRPPLLPPTSLLKSPLNHTQDAKLPSPLGNPALPLVSAVSNSSQGTTAAAGPEEKFESRLEDSCVEKLKTRSSDMSDGSDFEDVNTTTGTDLDTTTGTGSDLDSDVDSDPDKDKGKGKSAEGQPKFGGGLAPPGAPNSVAEVPVFYSQHSFFPPPDEQLLTATGAAGDSIKAIASIAEKYFGPGFMGMQEKKLGSLPYHSAFPFQFLPNFPHSLYPFTDRALAHNLLVKAEPKSPRDALKVGGPSAECPFDLTTKPKDVKPILPMPKGPSAPASGEEQPLDLSIGSRARASQNGGGREPRKNHVYGERKLGAGEGLPQVCPARMPQQPPLHYAKPSPFFMDPIYSRVEKRKVTDPVGALKEKYLRPSPLLFHPQMSAIETMTEKLESFAAMKADSGSSLQPLPHHPFNFRSPPPTLSDPILRKGKERYTCRYCGKIFPRSANLTRHLRTHTGEQPYRCKYCDRSFSISSNLQRHVRNIHNKEKPFKCHLCNRCFGQQTNLDRHLKKHEHENAPVSQHPGVLTNHLGTSASSPTSESDNHALLDEKEDSYFSEIRNFIANSEMNQASTRTEKRADMQIVDGSAQCPGLASEKQEDVEEEDDDDLEEDDEDSLAGKSQDDTVSPAPEPQAAYEDEEDEEPAASLAVGFDHTRRCAEDHEGGLLALEPMPTFGKGLDLRRAAEEAFEVKDVLNSTLDSEALKHTLCRQAKNQAYAMMLSLSEDTPLHTPSQGSLDAWLKVTGATSESGAFHPINHL

Tested on: HEK293FT cells transfected with TF library
Assay: Screening of TF condensates based on fluorescent puncta
Type: cell-based
Conditions: Figure 1B numerical data; TF library screen, one value per transcriptional factor
How it was run: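 Puncta scoring used automated confocal imaging of fifty random fields per well, after anti-Flag or anti-GAL4 immunofluorescence (Alexa 488) in PFA-fixed cells. HEK293FT cells carried TF library plasmids delivered with PEI (1.6 μg/ml DNA). At 60 h they were switched for 12 h to glucose-containing or glucose-free medium.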

Molecule	Z score of condensed fraction
B1	1.258
B2	-0.4468
